# PMC5006643
# Target: pV2α-Tys, tyrosine-sulfated 18-mer V2 mimetic peptide (aa. 168-185 of HIV-1 BaL gp120) (HIV-1 (isolate BaL))
# Test: SPR
Substance,Kd [nM],koff [s⁻¹],kon [M⁻¹ s⁻¹]
recombinant monomeric gp120 (HIV-1 strain BaL) (natural protein),79.1,0.00189,23900
gp120 (BaL) pre-complexed with the CD4 mimic CD4-M48U,69.1,0.00334,48300
BG505 SOSIP.664 trimer pre-treated with the CD4 mimic CD4-M48U (from UniProt Q2N0S6 1-860; Q2N0S6 1-860) (complex),161,0.005,31000
